This note sets out measurements from patent publication US20260022175A1 (Chugai, published 2026).

Positions count from the first letter of the chain named. Names may count otherwise.

The target in experiment [1] is T1, hCTLA4-His-BAP (human CTLA4 extracellular region with C-terminal His-tag and BAP-tag) (human, biotin on the BAP-tag).
T1 construct: also called hCTLA4-His-Biotin
In words: SPR 37C, hCTLA4 1000 nM, ATP 1 µM; ATP 1 µM; binding amount at 1000 nM hCTLA4.

Experiment [2] has as its target T1, hCTLA4-His-BAP (human CTLA4 …). The experiment is described as follows: SPR 37C, hCTLA4 1000 nM, ATP 100 µM; ATP 100 µM; binding amount at 1000 nM hCTLA4.
Experiment [3] has the same target. The experiment is described as follows: SPR 37C, ATP 100 µM; ATP 100 µM.
Experiment [4] shares this target. The experiment is described as follows: SPR 37C, hCTLA4 1000 nM, no ATP; no ATP; binding amount at 1000 nM hCTLA4.
For experiment [5] the target is unchanged. The experiment is described as follows: SPR 37C, hCTLA4 1000 nM, ATP 10 µM; ATP 10 µM; binding amount at 1000 nM hCTLA4.
In experiment [6] the target is T2, human FcRn (human, UniProt P55899 24-290; P61769 21-119).
T2 construct: Prepared by the method of WO 2010/107110; also called hFcRn
T2 sequence (P55899 24-290 limits assumed, chain 1 of 2): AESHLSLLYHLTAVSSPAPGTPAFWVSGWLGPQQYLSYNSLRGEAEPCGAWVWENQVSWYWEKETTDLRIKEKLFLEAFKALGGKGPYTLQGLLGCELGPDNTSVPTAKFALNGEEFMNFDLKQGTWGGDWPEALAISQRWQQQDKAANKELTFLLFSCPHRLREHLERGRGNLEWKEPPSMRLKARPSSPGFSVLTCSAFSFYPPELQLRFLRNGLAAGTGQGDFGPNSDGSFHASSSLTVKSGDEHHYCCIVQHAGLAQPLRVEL
T2 sequence (P61769 21-119 limits assumed, chain 2 of 2): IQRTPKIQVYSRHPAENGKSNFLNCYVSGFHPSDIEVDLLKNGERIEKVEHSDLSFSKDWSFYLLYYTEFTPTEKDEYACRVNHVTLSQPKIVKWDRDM
In words: SPR Biacore T200, Ab captured via Fab-kappa, pH 6.0, steady state. In general terms: In SPR one partner is held on a chip, and binding of the other changes the refractive index at the surface.

The target of experiment [7] is T3, human FcγRIIb extracellular domain with C-terminal His-tag (human, UniProt P31994 43-217).
T3 construct: extracellular domain; also called hFcγR IIb
T3 sequence (looked up): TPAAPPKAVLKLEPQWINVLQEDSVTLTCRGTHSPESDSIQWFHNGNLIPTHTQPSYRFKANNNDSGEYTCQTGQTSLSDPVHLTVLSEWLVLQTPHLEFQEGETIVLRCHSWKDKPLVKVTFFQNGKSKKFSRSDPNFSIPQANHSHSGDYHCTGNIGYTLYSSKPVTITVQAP
The experiment is described as follows: SPR; FcγRIIb bound amount per unit captured Ab.

In experiment [8] the target is T4, human FcγRIIa H allotype extracellular domain with C-terminal His-tag (human, UniProt P12318 34-217).
T4 construct: extracellular domain; also called hFcγR IIa H
T4 sequence (looked up): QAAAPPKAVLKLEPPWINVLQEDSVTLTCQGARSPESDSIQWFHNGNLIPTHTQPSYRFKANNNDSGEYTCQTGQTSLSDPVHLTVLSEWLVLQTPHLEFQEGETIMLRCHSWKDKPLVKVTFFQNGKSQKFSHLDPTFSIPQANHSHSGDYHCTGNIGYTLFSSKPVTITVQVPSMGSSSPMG
The experiment is described as follows: SPR; KD of 04H1389-G1m/04L1615-k0MT divided by KD of variant.

Experiment [9] concerns the target T5, human FcγRIIa R allotype extracellular domain with C-terminal His-tag (human, UniProt P12318 34-217).
T5 construct: extracellular domain; also called hFcγR IIa R
T5 sequence (looked up): T4 sequence (looked up) with H134R
The description is as above.

The target of experiment [10] is T2, human FcRn. The description is as above.
Experiment [11] deals with T6, human FcγRIa extracellular domain with C-terminal His-tag (human, UniProt P12314 16-292).
T6 construct: extracellular domain; also called hFcγR Ia; hFcγRIa
T6 sequence (P12314 16-292): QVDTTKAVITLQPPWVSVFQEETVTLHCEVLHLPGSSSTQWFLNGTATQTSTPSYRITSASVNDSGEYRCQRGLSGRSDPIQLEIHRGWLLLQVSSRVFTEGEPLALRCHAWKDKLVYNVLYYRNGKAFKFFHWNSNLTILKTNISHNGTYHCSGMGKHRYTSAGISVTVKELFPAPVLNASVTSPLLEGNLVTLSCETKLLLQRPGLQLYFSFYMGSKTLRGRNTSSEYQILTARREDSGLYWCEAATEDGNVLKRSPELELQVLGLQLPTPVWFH
The experiment is described as above.

For experiment [12], the target named is T7, human FcγRIIIa V allotype extracellular domain with C-terminal His-tag (human, UniProt P08637 17-208).
T7 construct: extracellular domain; also called hFcγR IIIa V
T7 sequence (P08637 17-208 F176V): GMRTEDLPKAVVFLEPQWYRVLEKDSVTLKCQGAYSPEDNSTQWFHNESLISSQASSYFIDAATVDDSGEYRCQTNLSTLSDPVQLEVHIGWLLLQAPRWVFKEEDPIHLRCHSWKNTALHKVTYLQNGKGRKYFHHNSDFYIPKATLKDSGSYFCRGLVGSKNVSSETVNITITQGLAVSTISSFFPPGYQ
The experiment is described as above.

The target in experiment [13] is T4, human FcγRIIa H allotype extracellular …. In words: SPR Biacore T200, Ab captured via Fab-kappa, pH 7.4, 25C.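 Also: each FcγR flowed as analyte over the captured antibodies, KD derived by 1:1 Langmuir or steady-state affinity fitting depending on the receptor.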
For experiment [14], the target named is T5, human FcγRIIa R allotype extracellular …. The experiment is described as above.
The target of experiment [15] is T8, human FcγRIIIa F allotype extracellular domain with C-terminal His-tag (human, UniProt P08637 17-208).
T8 construct: extracellular domain; also called hFcγR IIIa F
T8 sequence (P08637 17-208): as the sequence (P08637 17-208 F176V) above, with V160F counted along it
The description is as above.

In experiment [16] the target is T6, human FcγRIa extracellular domain with …. Described as above.
Experiment [17] deals with T7, human FcγRIIIa V allotype extracellular …. Described as above.
The target in experiment [18] is T3, human FcγRIIb extracellular domain with …. The experiment is described as follows: SPR; binding amount divided by that of 04H1389-G1m/04L1615-k0MT.

T1 sequence (chain, as listed by the source limits assumed): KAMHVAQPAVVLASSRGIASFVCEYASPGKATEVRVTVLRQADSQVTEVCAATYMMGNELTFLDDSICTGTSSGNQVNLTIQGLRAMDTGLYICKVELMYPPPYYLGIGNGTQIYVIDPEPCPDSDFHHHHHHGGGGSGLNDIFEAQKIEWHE

B1: 04H1077-G1m/04L1034-lam1 (antibody, human IgG1, lambda, V domains shown)
VH: EVQLVESGGDLVKPGGGLRLSCAASGFTFSSRTMNWVRQAPGKGLEWVSSISTRSGYIYYAESVKGRFTISRDNAKNSLYLQMNSLRAEDTAVYYCARYGKREDMLWVFDYWGQGTLVTVSS
VL: QSALTQPPSASGSPGQTVTISCDGPSTDVGDYNWVSWYQQHPGKAPKLMIYFTSKKPSGVPDRFSGSKSGNTASLTVSGLQAEDEADYFCSTYAAPLGPMFGGGTKLTVLG
The term Kd denotes the free concentration of one partner at which half of the binding sites on the other are occupied at equilibrium, for simple one-to-one binding. Low readings indicate tighter binding, high ones weaker binding. Turning to B1, the “Binding to Human CTLA4” value in experiment [1] was 0.007 per unit amount of antibody; in experiment [2], 0.114 per unit amount of antibody; in experiment [4], 0.004 per unit amount of antibody; in experiment [5], 0.041 per unit amount of antibody. This molecule also had a dissociation constant (Kd) in experiment [3] of 320 nM.

B2: 04H1389-Ks481/04L1615-k0MT//04H1389-Hs498/04L1615-k0MT (antibody)
heavy 1: EVQLVESGGGLVKPGGSLRLSCAASGFTFSSKTMNWVRQAPGKGLEWVSSISTQSHYIYYAESVKGRFTISRDNAKNSLYLQMNSLRAEDTAVYYCARYGKREDMLWVFDYWGQGTLVTVSSASTKGPSVFPLAPSSKSTSGGTAALGCLVKDYFPEPVTVSWNSGALTSGVHTFPAVLQSSGLYSLSSVVTVPSSSLGTQTYICNVNHKPSNTKVDKRVEPKSCDKTHTCPPCPAPEFQWGPMVFLFPPKPKDVLMISRTPEVTCVVVDVSDEEPEVKFNWYVDGVEVHNAKTKPREEQYNATYRVVSVLPVLHQDWLNGKEYKCKVSNDALPAPEEKTISKAKGQPREPQVYTLPPSREEMTKNQVSLWCLVKGFYPSDIAVEWESNGQPENNYKTTPPVLDSDGSFFLYSKLTVDKSRWQQGNVFSCSVMHEALHAHTTRKELSLSP
heavy 2: B2 heavy 1 with F239L, Q240L, W241A, M244S, D273H, K339E, W371S, L373A, Y412V
light: DIVMTQSPLSLPVTPGEPASISCQGPSTGVGDYNYVHWYQQKPGQAPRLLIYFTSKKPSGVPDRFSGSGSGTDFTLKISRVEAEDVGVYYCQTYAAPLGPMFGQGTKLEIKRTVAAPSVFIFPPSDEQLKSGTASVVCLLNNFYPREAKVQWKVDNALQSGNSQESVTEQDSKDSTYSLSSTLTLSKADYEKHKVYACEVTHQGLSSPVTKSFNRGEC
notes: Heterodimerized antibody with N434A/Y436T/Q438R/S440E
For the molecule B2, the dissociation constant Kd turned out to be 460 nM with human FcRn [6]; 190 nM in [13]; 260 nM in experiment [14]; 1.3 nM in experiment [15]; 0.028 nM in [16]; 0.6 nM in experiment [17]. In experiment [7], the Binding amount is 0.023. For the same molecule, the “Relative value to KD between G1m and hFcγRs” value in [8] is 5.6; in experiment [9], 5.6; in experiment [11] it was 1.6; in experiment [12], 1500. In addition, the “Relative value to KD between G1m and hFcRn” value with human FcRn [10] is 2.8. This molecule also came in with a Relative binding amount in [18] of 2.

B3: 04H1389-Ks461/04L1615-k0MT//04H1389-Hs443/04L1615-k0MT (antibody, human IgG1, kappa)
heavy 1: B2 heavy 1 with A439N, T441Y, R443Q, E445S
heavy 2: EVQLVESGGGLVKPGGSLRLSCAASGFTFSSKTMNWVRQAPGKGLEWVSSISTQSHYIYYAESVKGRFTISRDNAKNSLYLQMNSLRAEDTAVYYCARYGKREDMLWVFDYWGQGTLVTVSSASTKGPSVFPLAPSSKSTSGGTAALGCLVKDYFPEPVTVSWNSGALTSGVHTFPAVLQSSGLYSLSSVVTVPSSSLGTQTYICNVNHKPSNTKVDKRVEPKSCDKTHTCPPCPAPELLAGPSVFLFPPKPKDVLMISRTPEVTCVVVDVSHEEPEVKFNWYVDGVEVHNAKTKPREEQYNATYRVVSVLPVLHQDWLNGKEYKCKVSNDALPAPEEETISKAKGQPREPQVYTLPPSREEMTKNQVSLSCAVKGFYPSDIAVEWESNGQPENNYKTTPPVLDSDGSFFLVSKLTVDKSRWQQGNVFSCSVMHEALHNHYTQKSLSLSP
light: B2 light
notes: Heterodimerized antibody
On to B3, for which the Kd in the experiment with human FcRn [6] amounted to 1700 nM; in experiment [13], 160 nM; in [14] it was 250 nM; in experiment [15] it was 1.2 nM; in experiment [16], 0.03 nM; in [17], 0.56 nM. In experiment [7], this molecule yielded a Binding amount of 0.024. Besides, the “Relative value to KD between G1m and hFcγRs” value came out at 6.7 in experiment [8], 5.9 in [9], 1.5 in experiment [11] and 1630 in [12]. Also, the “Relative value to KD between G1m and hFcRn” value in the experiment with human FcRn [10] was determined as 0.8. Also, in experiment [18], the Relative binding amount was 2.1.
